Measurements from patent publication US7056679 (ANTYRA, dated 2006).

How the values were obtained:
Assay in all cases: phage ELISA
[1] = target: T1, antibody raised against ETAG
T1 construct: Coated at 500 ng/well; also called E-tag antibody
Experimental: (§1) For analysis of individual target binders, colonies were picked and phage prepared as described above using helper phage, M13KO7. Ninety-six-well microtiter plates were coated with 500 ng/well of specific target protein, 500 ng/well lactate dehydrogenase (LDH) irrelevant or non-specific target, 500 ng/well of positive control antibody raised against ETAG, and negative control of non-fat milk powder-PBS 2% at 4° C. overnight. Plates were then blocked with 350 microliters/well PBS containing 2% non-fat milk for 1 hr at room temperature. One hundred microliters per well of phage from isolated clones were added and plates were incubated at room temperature for 2 hr after centrifuging samples for 20 minutes at 3500 rpm at 4° C. The phage solution was then removed, and the wells were washed three times with PBS at room temperature. Antibody raised against M13 conjugated to horseradish peroxidase (Pharmacia) was diluted 1:3000 in PBS-Tween and added to each well (100 µl/well). Incubation was for 1 hr at room temperature, followed by washing with PBS-(0.5%) Tween 3 times as described. Color was developed by addition of ABTS solution (100 µl/well; Boehringer, Indianapolis, Ind.). Plates were analyzed at 405 nm. A clone was considered "positive" if the $A405$ of the well was $\geq$2-fold over background.

DGI-2 polypeptide = target: T2, DGI-2 polypeptide (UniProt Q15004 1-111, limits assumed)
T2 construct: Soluble recombinant protein coated at 500 ng/well; vector tag of pIVEX2.3-MCS not described for this construct; also called KIAA0101
T2 sequence (looked up): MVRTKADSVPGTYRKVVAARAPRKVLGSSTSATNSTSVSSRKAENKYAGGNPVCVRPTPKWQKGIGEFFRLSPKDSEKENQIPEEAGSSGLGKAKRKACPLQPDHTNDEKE
Experimental: as §1

[2] = target: T3, lactate dehydrogenase (LDH)
T3 construct: Coated at 500 ng/well as non-specific target; also called LDH polypeptide
Experimental: as §1

B1: DGI-2-20R-4-G114 (peptide)
peptide: DGRGWGAMWMRWAEGLGADIAAAGAPVPYPDPLEPRP
ETAG (OD) [1]: 16.5 OD
DGI-2 (OD) (DGI-2 polypeptide): 12.9 OD
DGI-2/LDH (DGI-2 polypeptide): 11 ratio
LDH (OD) [2]: 1.2 OD

B2: DGI-2-20R-3-C11 (peptide)
peptide: SRELGKWGRLWQDWSSGNFSAAAGAPVPYPDPLEPRP
ETAG (OD) [1]: 18.9 OD
DGI-2 (OD) (DGI-2 polypeptide): 8.6 OD
DGI-2/LDH (DGI-2 polypeptide): 8.3 ratio
LDH (OD) [2]: 1 OD

B3: DGI-2-20R-3-A5 (peptide)
peptide: VWRDWVNGTVGLRNREKPGVAAAGAPVPYPDPLEPRP
ETAG (OD) [1]: 14.9 OD
DGI-2 (OD) (DGI-2 polypeptide): 10.9 OD
DGI-2/LDH (DGI-2 polypeptide): 9.8 ratio
LDH (OD) [2]: 1.1 OD

B4: DGI-2-20R-3-B4 (peptide)
peptide: RKGWGVFCIPGLRFCDWSDPAAAGAPVPYPDPLEPRP
ETAG (OD) [1]: 17.4 OD
DGI-2 (OD) (DGI-2 polypeptide): 8.4 OD
DGI-2/LDH (DGI-2 polypeptide): 8.6 ratio
LDH (OD) [2]: 1 OD

B5: DGI-2-20R-4-G4 (peptide)
peptide: VWAAWVEGSLLSPRQEPVRDAAAGAPVPYPDPLEPRP
ETAG (OD) [1]: 13.6 OD
DGI-2 (OD) (DGI-2 polypeptide): 10.2 OD
DGI-2/LDH (DGI-2 polypeptide): 9.8 ratio
LDH (OD) [2]: 1 OD

B6: DGI-2-20R-4-H626 (peptide)
peptide: RRGVCEIFTGWCVGQTNERPAAAGAPVPYPDPLEPRP
ETAG (OD) [1]: 13.5 OD
DGI-2 (OD) (DGI-2 polypeptide): 9.6 OD
DGI-2/LDH (DGI-2 polypeptide): 8.8 ratio
LDH (OD) [2]: 1.1 OD

B7: DGI-2-20R-3-B52 (peptide)
peptide: LWRRWSEGQLLGDGELRGDGAAAGAPVPYPDPLEPRP
ETAG (OD) [1]: 15.8 OD
DGI-2 (OD) (DGI-2 polypeptide): 8.7 OD
DGI-2/LDH (DGI-2 polypeptide): 8.4 ratio
LDH (OD) [2]: 1 OD

B8: DGI-2-20F-PP-G1 (peptide)
peptide: RTLFINGGCCGKGSGGGRPLAAAGAPVPYPDPLEPRP
ETAG (OD) [1]: 21.8 OD
DGI-2 (OD) (DGI-2 polypeptide): 1.4 OD
DGI-2/LDH (DGI-2 polypeptide): 1.4 ratio
LDH (OD) [2]: 1 OD

B9: DGI-2-20F-PP-E7 (peptide)
peptide: GAIRLSGAAWTASRTGGRASAAAGAPVPYPDPLEPRP
ETAG (OD) [1]: 21.5 OD
DGI-2 (OD) (DGI-2 polypeptide): 1.6 OD
DGI-2/LDH (DGI-2 polypeptide): 1.8 ratio
LDH (OD) [2]: 0.9 OD

B10: DGI-2-20R-4-H1 (peptide)
peptide: GRWDGWEVCGIWGADDCASGAAAGAPVPYPDPLEPRP
ETAG (OD) [1]: 14 OD
DGI-2 (OD) (DGI-2 polypeptide): 9.3 OD
DGI-2/LDH (DGI-2 polypeptide): 7.8 ratio
LDH (OD) [2]: 1.2 OD

B11: DGI-2-20R-4-H2 (peptide)
peptide: GHGAGDWAAELFVCPVAFLTGFAWRAAAGAPVPYPDPLEPRP
ETAG (OD) [1]: 12.9 OD
DGI-2 (OD) (DGI-2 polypeptide): 9.9 OD
DGI-2/LDH (DGI-2 polypeptide): 9.2 ratio
LDH (OD) [2]: 1.1 OD

B12: DGI-2-20R-4-F93 (peptide)
peptide: LSLEGGWMWDTKGGDGGSAQAAAGAPVPYPDPLEPRP
ETAG (OD) [1]: 19.5 OD
DGI-2 (OD) (DGI-2 polypeptide): 9 OD
DGI-2/LDH (DGI-2 polypeptide): 8.4 ratio
LDH (OD) [2]: 1.1 OD

B13: DGI-2-20R-3-A122 (peptide)
peptide: WWREWVDGSLRGGGGTVLKDAAAGAPVPYPDPLEPRP
ETAG (OD) [1]: 15.1 OD
DGI-2 (OD) (DGI-2 polypeptide): 9.6 OD
DGI-2/LDH (DGI-2 polypeptide): 9.4 ratio
LDH (OD) [2]: 1 OD

B14: DGI-2-20R-4-F120 (peptide)
peptide: GWSDFVATGSWSGQVSAALNAAAGAPVPYPDPLEPRP
ETAG (OD) [1]: 16.5 OD
DGI-2 (OD) (DGI-2 polypeptide): 13.6 OD
DGI-2/LDH (DGI-2 polypeptide): 12.2 ratio
LDH (OD) [2]: 1.1 OD

B15: DGI-2-20F-PP-H6 (peptide)
peptide: RGVNSDMPRLYICRADGQGQAAAGAPVPYPDPLEPRP
ETAG (OD) [1]: 18.9 OD
DGI-2 (OD) (DGI-2 polypeptide): 1.6 OD
DGI-2/LDH (DGI-2 polypeptide): 1.9 ratio
LDH (OD) [2]: 0.8 OD

B16: DGI-2-20R-3-D4 (peptide)
peptide: CGGWGAMWEAWVQGLNGAGCAAAGAPVPYPDPLEPRP
ETAG (OD) [1]: 18.9 OD
DGI-2 (OD) (DGI-2 polypeptide): 8.7 OD
DGI-2/LDH (DGI-2 polypeptide): 8.1 ratio
LDH (OD) [2]: 1.1 OD
